Measurements from the supplement of paper PMC10724198.
± gives the standard deviation of the averaged measurements.

What was measured:
Saccharomyces cerevisiae [1] = assay: protein stability index of tFT-peptide fusion (C-terminal peptide) (PSI (0-1 scale)); higher = more stable (slower turnover)
Procedure: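 MPS profiling in S. cerevisiae of the tFT-X12 degron library: putative degron peptides plus stable controls, 12 aa, fused to the C-terminus of a sfGFP-mCherry timer. Cells are FACS-sorted into 8 mCherry/sfGFP bins and deep-sequenced. PSI runs from 0 (unstable) to 1 (stable). Backgrounds are wild type, das1Δ and doa10Δ at 30 °C, and wild type, das1Δ, cdc34-1 and cdc53-1 at 37 °C; 2-3 technical replicates each.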

Saccharomyces cerevisiae [2] = assay: as above; details: genetic background: wild type; temperature: 30 C
[3] = genetic background: cdc34-1, temperature: 37 C
[4] = genetic background: cdc53-1, temperature: 37 C
[5] = genetic background: das1 deletion, temperature: 30 C
[6] = genetic background: das1 deletion, temperature: 37 C
[7] = genetic background: doa10 deletion, temperature: 30 C
[8] = genetic background: wild type, temperature: 30 C
[9] = genetic background: wild type, temperature: 37 C
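Also: PSI is a weighted mean of sequencing reads over stability bins, variants kept only with over 10 reads, mCherry proximal and sfGFP distal, peptide attached via GGGS linker.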

| Sequence | protein stability index (Saccharomyces cerevisiae [1]; [3]) | protein stability index (Saccharomyces cerevisiae [1]; [4]) | protein stability index (Saccharomyces cerevisiae [1]; [5]) | protein stability index (Saccharomyces cerevisiae [1]; [6]) | protein stability index (Saccharomyces cerevisiae [1]; [7]) | protein stability index (Saccharomyces cerevisiae [1]; [8]) | protein stability index (Saccharomyces cerevisiae [1]; [9]) | protein stability index (Saccharomyces cerevisiae [2]) |
| --- | --- | --- | --- | --- | --- | --- | --- | --- |
| CFVQVGGLVKIS | 0.66 ± 0.045 | 0.725 ± 0.042 | 0.61 ± 0.012 | 0.731 ± 0.033 | 0.248 ± 0.02 | 0.293 ± 0.036 | 0.57 ± 0.04 | 0.412 ± 0.012 |
| CFVSFLHLLYFS | 0.347 ± 0.044 | 0.341 ± 0.025 | 0.35 ± 0.025 | 0.4666 ± 8.3e-05 | 0.506 ± 0.0063 | 0.296 ± 0.024 | 0.425 ± 0.0054 | 0.362 ± 0.015 |
| CGFVCGLCLCRV | 0.552 ± 0.052 | 0.586 ± 0.016 | 0.364 ± 0.04 | 0.605 ± 0.042 | 0.345 ± 0.023 | 0.381 ± 0.031 | 0.572 ± 0.013 | 0.484 ± 0.0062 |
| CGFVFFVLVVFW | 0.112 ± 0.0055 | 0.17 ± 0.0063 | 0.12 ± 0.033 | 0.229 ± 0.0079 | 0.15 ± 0.0054 | 0.114 ± 0.025 | 0.193 ± 0.026 | 0.15 ± 0.035 |
| CGQIAFLGIAVK | 0.479 ± 0.0077 | 0.504 ± 0.043 | 0.317 ± 0.042 | 0.551 ± 0.024 | 0.289 ± 0.015 | 0.323 ± 0.029 | 0.541 ± 0.0077 | 0.4722 ± 0.0006 |
| CGWFVSVGWRLG | 0.5443 ± 0.0014 | 0.67 ± 0.037 | 0.514 ± 0.016 | 0.66 ± 0.0096 | 0.228 ± 0.014 | 0.305 ± 0.035 | 0.5062 ± 0.0022 | 0.25 ± 0.013 |
| CHFLLHYVFLLS | 0.3792 ± 0.0019 | 0.456 ± 0.0076 | 0.306 ± 0.037 | 0.523 ± 0.0055 | 0.241 ± 0.0065 | 0.267 ± 0.024 | 0.462 ± 0.015 | 0.417 ± 0.017 |
| CHPIPLARLAPT | 0.671 ± 0.032 | 0.745 ± 0.032 | 0.67 ± 0.046 | 0.7433 ± 0.0058 | 0.652 ± 0.026 | 0.666 ± 0.014 | 0.697 ± 0.011 | 0.72 ± 0.013 |
| CKKATILRIKSM | 0.589 ± 0.049 | 0.715 ± 0.051 | 0.643 ± 0.014 | 0.691 ± 0.0021 | 0.17 ± 0.023 | 0.19 ± 0.031 | 0.298 ± 0.059 | 0.304 ± 0.013 |
| CLCYFLFYFLFV | 0.49 ± 0.0055 | 0.513 ± 0.026 | 0.436 ± 0.033 | 0.572 ± 0.0063 | 0.465 ± 0.023 | 0.442 ± 0.029 | 0.543 ± 0.028 | 0.501 ± 0.043 |
| CLEHLVYCRLAS | 0.435 ± 0.046 | 0.624 ± 0.06 | 0.555 ± 0.015 | 0.6774 ± 0.0062 | 0.0612 ± 0.0023 | 0.0694 ± 0.025 | 0.0634 ± 0.0027 | 0.131 ± 0.022 |
| CLHFLTWVRICS | 0.2 ± 0.041 | 0.4701 ± 0.0029 | 0.409 ± 0.019 | 0.526 ± 0.011 | 0.0895 ± 0.0063 | 0.0814 ± 0.025 | 0.0804 ± 0.03 | 0.285 ± 0.041 |
| CLNPCVRWDGHV | 0.739 ± 0.065 | 0.7589 ± 0.0016 | 0.651 ± 0.039 | 0.77 ± 0.0062 | 0.661 ± 0.05 | 0.687 ± 0.028 | 0.732 ± 0.011 | 0.708 ± 0.0077 |
| CMAWLSVLKTLF | 0.709 ± 0.082 | 0.744 ± 0.023 | 0.63 ± 0.017 | 0.756 ± 0.037 | 0.387 ± 0.037 | 0.421 ± 0.012 | 0.615 ± 0.053 | 0.495 ± 0.04 |
| CRQDWMCFVYLS | 0.0642 ± 0.013 | 0.0406 ± 0.0042 | 0.145 ± 0.021 | 0.187 ± 0.031 | 0.166 ± 0.0047 | 0.0558 ± 0.007 | 0.0647 ± 0.023 | 0.108 ± 0.016 |
| CVFAYSPVALRC | 0.543 ± 0.025 | 0.534 ± 0.014 | 0.409 ± 0.024 | 0.556 ± 0.0084 | 0.412 ± 0.016 | 0.403 ± 0.018 | 0.532 ± 0.018 | 0.488 ± 0.01 |
| CVFGFACRVLVV | 0.288 ± 0.012 | 0.32639 ± 4.3e-05 | 0.281 ± 0.031 | 0.407 ± 0.0012 | 0.241 ± 0.011 | 0.278 ± 0.02 | 0.364 ± 0.01 | 0.338 ± 0.017 |
| CYKYTYVKNNMI | 0.689 ± 0.042 | 0.7646 ± 0.0044 | 0.642 ± 0.038 | 0.753 ± 0.014 | 0.197 ± 0.013 | 0.231 ± 0.044 | 0.555 ± 0.014 | 0.249 ± 0.051 |
| CYRRCQAFLVLV | 0.313 ± 0.024 | 0.397 ± 0.015 | 0.334 ± 0.031 | 0.449 ± 0.015 | 0.134 ± 0.0022 | 0.127 ± 0.026 | 0.162 ± 0.011 | 0.181 ± 0.0026 |
| DFVFFLVSVRFR | 0.103 ± 0.039 | 0.216 ± 0.059 | 0.177 ± 0.037 | 0.32 ± 0.017 | 0.15 ± 0.013 | 0.178 ± 0.03 | 0.284 ± 0.0058 | 0.284 ± 0.081 |

| Sequence | protein stability index (Saccharomyces cerevisiae [1]; [3]) | protein stability index (Saccharomyces cerevisiae [1]; [4]) | protein stability index (Saccharomyces cerevisiae [1]; [5]) | protein stability index (Saccharomyces cerevisiae [1]; [6]) | protein stability index (Saccharomyces cerevisiae [1]; [7]) | protein stability index (Saccharomyces cerevisiae [1]; [8]) | protein stability index (Saccharomyces cerevisiae [1]; [9]) | protein stability index (Saccharomyces cerevisiae [2]) |
| --- | --- | --- | --- | --- | --- | --- | --- | --- |
| DGSFCLLYMTIA | 0.504 ± 0.066 | 0.5745 ± 0.002 | 0.429 ± 0.02 | 0.615 ± 0.046 | 0.293 ± 0.0055 | 0.332 ± 0.016 | 0.4919 ± 0.0048 | 0.454 ± 0.01 |
| DGYLFKGIWFFV | 0.645 ± 0.011 | 0.7326 ± 0.0039 | 0.617 ± 0.033 | 0.738 ± 0.036 | 0.145 ± 0.0041 | 0.163 ± 0.022 | 0.349 ± 0.0098 | 0.189 ± 0.031 |
| DKVTLLRRCKQY | 0.606 ± 0.03 | 0.726 ± 0.009 | 0.634 ± 0.026 | 0.701 ± 0.015 | 0.173 ± 0.029 | 0.206 ± 0.03 | 0.311 ± 0.012 | 0.202 ± 0.12 |
| DLRGLGRFRISH | 0.6886 ± 0.0067 | 0.741 ± 0.021 | 0.64 ± 0.031 | 0.7181 ± 0.0055 | 0.486 ± 0.0072 | 0.503 ± 0.024 | 0.677 ± 0.017 | 0.572 ± 0.11 |
| DLVGRETRMRLN | 0.6744 ± 0.0063 | 0.70449 ± 0.00037 | 0.633 ± 0.039 | 0.7221 ± 0.0045 | 0.202 ± 0.01 | 0.263 ± 0.022 | 0.526 ± 0.097 | 0.383 ± 0.0088 |
| DPTLLLYPLSPL | 0.688 ± 0.018 | 0.765 ± 0.0076 | 0.654 ± 0.019 | 0.748 ± 0.014 | 0.667 ± 0.029 | 0.685 ± 0.035 | 0.72 ± 0.023 | 0.57 ± 0.2 |
| DVVRWQRVRNYV | 0.687 ± 0.024 | 0.7218 ± 0.0072 | 0.632 ± 0.022 | 0.737 ± 0.0088 | 0.2746 ± 0.0021 | 0.3 ± 0.028 | 0.573 ± 0.0059 | 0.454 ± 0.041 |
| EGGGGRFWVCVG | 0.676 ± 0.044 | 0.732 ± 0.012 | 0.631 ± 0.0097 | 0.748 ± 0.014 | 0.258 ± 0.0033 | 0.298 ± 0.034 | 0.596 ± 0.018 | 0.425 ± 0.028 |
| EKHRRYAITKFI | 0.666 ± 0.019 | 0.694 ± 0.052 | 0.659 ± 0.027 | 0.732 ± 0.025 | 0.155 ± 0.0053 | 0.196 ± 0.058 | 0.407 ± 0.1 | 0.28 ± 0.043 |
| EKKNQTAYNKTV | 0.691 ± 0.035 | 0.71 ± 0.023 | 0.644 ± 0.013 | 0.707 ± 0.022 | 0.149 ± 0.021 | 0.176 ± 0.028 | 0.365 ± 0.0059 | 0.39 ± 0.018 |
| EKTKTKRERKIN | 0.576 ± 0.0019 | 0.696 ± 0.008 | 0.626 ± 0.045 | 0.715 ± 0.036 | 0.165 ± 0.0048 | 0.191 ± 0.015 | 0.384 ± 0.0062 | 0.312 ± 0.028 |
| ELNERRKRLVTN | 0.623 ± 0.052 | 0.737 ± 0.01 | 0.6615 ± 0.0035 | 0.718 ± 0.0088 | 0.13 ± 0.021 | 0.142 ± 0.012 | 0.268 ± 0.033 | 0.304 ± 0.011 |
| ERNERKYKIKIT | 0.699 ± 0.018 | 0.724 ± 0.035 | 0.609 ± 0.042 | 0.715 ± 0.026 | 0.179 ± 0.013 | 0.239 ± 0.037 | 0.461 ± 0.034 | 0.374 ± 0.041 |
| ESCFGMAIFCVT | 0.526 ± 0.012 | 0.571 ± 0.011 | 0.37 ± 0.03 | 0.5841 ± 0.0045 | 0.301 ± 0.012 | 0.334 ± 0.03 | 0.525 ± 0.01 | 0.466 ± 0.024 |
| ESCIFLMWLTVL | 0.177 ± 0.013 | 0.273 ± 0.024 | 0.222 ± 0.032 | 0.379 ± 0.0044 | 0.0814 ± 0.021 | 0.0868 ± 0.012 | 0.0936 ± 0.013 | 0.136 ± 0.0054 |
| ESFIKFALYIVN | 0.557 ± 0.052 | 0.604 ± 0.0067 | 0.435 ± 0.023 | 0.621 ± 0.014 | 0.348 ± 0.013 | 0.358 ± 0.036 | 0.5099 ± 0.00084 | 0.419 ± 0.0082 |
| EVVFHVFLVGLV | 0.314 ± 0.015 | 0.451 ± 0.015 | 0.292 ± 0.035 | 0.512 ± 0.018 | 0.203 ± 0.012 | 0.274 ± 0.013 | 0.464 ± 0.0058 | 0.362 ± 0.0059 |
| FALPPSLLLLSA | 0.544 ± 0.019 | 0.557 ± 0.013 | 0.442 ± 0.027 | 0.5917 ± 0.0017 | 0.418 ± 0.0085 | 0.449 ± 0.016 | 0.55962 ± 0.00044 | 0.501 ± 0.026 |
| FCCLIGYIWYGW | 0.45071 ± 0.00045 | 0.5083 ± 0.00082 | 0.392 ± 0.041 | 0.527 ± 0.013 | 0.344 ± 0.0071 | 0.363 ± 0.011 | 0.514 ± 0.039 | 0.488 ± 0.019 |
